Data: patent US6582689B1, “IL-18/IGIF chemotherapeutic compositions” (Smithkline Beecham Corporation, priority 1998, dated 2003)
Entries after “also recorded” stand apart in the source; their conditions may differ. Read-outs that look alike come from different tables or passages of the source.

Tests used:
B16F10 melanoma [1] = test: advanced subcutaneous B16F10 melanoma, repeat with cyclophosphamide (Example VII); type: in vivo, mice; details: for regressions: treatment from median 100 mm^3 (Day 14)
B16F10 melanoma [2] = test: advanced subcutaneous B16F10 melanoma (Example VI); type: in vivo, mice
Experimental: In this experiment, IL-18 was evaluated in an advanced syngeneic tumor model alone and in combination with chemotherapy. Mice bearing advanced subcutaneous B16F10 melanoma were treated with IL-18 alone or in combination with either cyclophosphamide or topotecan. Treatment was initiated on Day 11 postimplantation.

[3] = system: mammary adenocarcinoma 16/c; test: subcutaneous mammary adenocarcinoma 16/c, IL-18 and doxorubicin (Example IX); type: in vivo, mouse; details: for regressions: alone or combined
Experimental: (§1) An experiment was conducted to determine the effectiveness of IL-18 on its own and in combination with doxorubicin in the 16/c mammary adenocarcinoma tumor model. The 16/c line was implanted subcutaneously at a 1:10 brei and allowed to grow to a median of 52-109 mm^3 before initiation of treatment. Doxorubicin was administered intravenously on Days 12 and 19 at 7.2, 12, and 20 mg/kg. IL-18 was administered subcutaneously at 1, 10, and 100 μg/mouse on a qD×21 schedule starting from Day 12. The endpoints of this study were tumor growth delay and regression.

[4] = toxicity and toxic deaths in the 16/c experiment (Example IX)
Experimental: as §1

[5] = mouse, in vivo
Experimental: as §1

[6] = system: Madison 109 lung carcinoma; test: subcutaneous Madison 109 lung carcinoma, IL-18 and paclitaxel (Example VIII); type: in vivo, mouse; details: for regressions: alone or combined
[7] = paclitaxel 24 mg/kg iv qD×5
Lewis lung carcinoma [8] = system: Lewis lung carcinoma
Experimental: Treatment was delayed until Day 7 when tumors were established and growing in the lungs. Half of the mice in each group were killed on Day 16 to determine effects of treatment on pulmonary tumor growth, the remaining mice were continued under treatment and monitored for survival. […] Topotecan was administered intraperitonealy q4D×7 beginning on Day 7 and ending on Day 32 and the doses shown are in mg/kg. Murine IL-18 was administered intraperitonealy UID from Day 7 to Day 32 and the doses shown are μg/mouse. There were 3 groups of control animals, all of which died between Day 17 and 30.

MOPC-315 plasmacytoma [9] = test: established subcutaneous MOPC-315 plasmacytoma (Example III); type: in vivo, BALB/c mice
Experimental: The MOPC-315 plasmacytoma is analogous to the human cancer known as multiple myeloma. This tumor is a malignancy of the plasma cells, a mature form of B lymphocytes involved in antibody expression. MOPC-315 grows rapidly to a very large size in syngeneic BALB/c mice. It is not highly metastatic or invasive.
IL-18 was evaluated in mice bearing established subcutaneous MOPC-315 plasmacytoma. In order to increase chances of seeing an effect of immunotherapy, IL-18 was evaluated in combination with an effective chemotherapeutic agent as well as by monotherapy. IL-18 at 0.3, 1, 3, and 10 μg/mouse was administered daily intraperitonealy and topotecan was administered intraperitonealy on a q4D schedule at 9 and 15 mg/kg. Both drugs were started on Day 11 postimplantation when the median tumor volume ranged from 32 to 88 mg. Control tumors took 17.2 days to grow to 1 gram. (See FIGS. 5-7).

MOPC-315 plasmacytoma [10] = test: advanced MOPC-315 plasmacytoma, confirmation with higher IL-18 doses (Example IV); type: in vivo, mice
Experimental: The activity of IL-18 in combination with topotecan in mice bearing advanced MOPC-315 plasmacytoma was confirmed in a large experiment in which higher doses of IL-18 were used. In this experiment, topotecan was administered q4D×6 beginning on Day 10 and IL-18 was given qD×30 beginning on the same day. Both drugs were administered intraperitonealy and activity was assessed by tumor measurements.

Lewis lung carcinoma [11] = test: advanced systemic Lewis lung carcinoma, confirmation with higher IL-18 doses (Example II); details: for tumor weight and nodule count: Day 14
Experimental: This experiment included the use of higher doses of IL-18. […] The remaining mice were continued under treatment and monitored for survival. Topotecan was administered intraperitonealy q4D×6 on Days 7, 11, 15, 19, 23, and 29; dosage levels shown are mg/kg. Murine IL-18 was administered intraperitonealy qD×26 from Day 7 to Day 33; dosage levels shown are μg/mouse.

MOPC-315 plasmacytoma [12] = test: advanced MOPC-315 plasmacytoma, schedule and route study (Example V); type: in vivo, mice
Experimental: The evaluation of IL-18 in combination with chemotherapy was repeated to establish: (a) how effective is IL-18 in tumor models when given subcutaneously and (b) whether IL-18 is active when given on an intermittent schedule or whether daily treatment is necessary. The experiment was set up again with topotecan in the advanced MOPC-315 plasmacytoma model with treatment starting on Day 10 when tumors were about 100 mm^3 in volume. Topotecan was given at its MTD of 15 mg/kg on a q4D regimen and IL-18 was given over a broad dosage range either intraperitonealy or subcutaneously on a q1D or q4D regimen. […] However, IL-18 was continued. (See FIGS. 11-13).

colon 26 adenocarcinoma = details: Hanaya et al. 1996; cited from earlier work
[13] = cyclophosphamide MTD 300 mg/kg q7D
[14] = topotecan MTD 15 mg/kg q4D, Day 16
[15] = topotecan MTD 15 mg/kg ip q4D from Day 11
[16] = topotecan 9 mg/kg ip q4D×6 from Day 7
[17] = topotecan 15 mg/kg ip q4D×6 from Day 7
[18] = IL-18 0.3 μg/mouse ip UID Day 7-32
[19] = IL-18 1 μg/mouse ip UID Day 7-32
[20] = IL-18 3 μg/mouse ip UID Day 7-32
[21] = IL-18 10 μg/mouse ip UID Day 7-32
[22] = IL-18 alone 0.3-10 μg/mouse ip UID, Day 16, no clear dose-response
[23] = IL-18 1 μg/mouse ip qD×26 Day 7-33
[24] = IL-18 3 μg/mouse ip qD×26 Day 7-33
[25] = IL-18 10 μg/mouse ip qD×26 Day 7-33
[26] = IL-18 30 μg/mouse ip qD×26 Day 7-33
[27] = IL-18 100 μg/mouse ip qD×26 Day 7-33

In the case of `O=P1(N(CCCl)CCCl)NCCCO1` (stereo not shown) [Cyclophosphamide, cyclophosphamide], the tumor growth delay (B16F10 melanoma [1]; cyclophosphamide MTD) is reported as 14 days, the tumor growth delay (B16F10 melanoma [1]; cyclophosphamide suboptimal dose 180 mg/kg) is reported as 4 days and the regressions (B16F10 melanoma [1]) is reported as “no regressions”. The increase in survival (B16F10 melanoma [2]; [13]) was 95% and the tumor growth delay (B16F10 melanoma [2]; [13]) was 14 days.

In the case of `COc1cccc2c1C(=O)c1c(O)c3c(c(O)c1C2=O)C[C@@](O)(C(=O)CO)C[C@@H]3O[C@H]1C[C@H](N)[C@H](O)[C@H](C)O1` [Doxorubicin, doxorubicin], the regressions [3] is reported as “no regressions”, the “tumor growth delay” value ([3]; doxorubicin 7.2, 12, 20 mg/kg iv) is reported as “dose-dependent tumor growth delay” and the efficacy ([3]; doxorubicin at 1/3 of its MTD) is reported as “little or no efficacy”. The MTD ([4]; mouse, in vivo, iv) was 20 mg/kg and the weight loss [5] was “no weight loss”.

In the case of `CC(=O)O[C@H]1C(=O)[C@@]2(C)[C@H]([C@H](OC(=O)c3ccccc3)[C@]3(O)C[C@H](OC(=O)[C@H](O)[C@@H](NC(=O)c4ccccc4)c4ccccc4)C(C)=C1C3(C)C)[C@]1(OC(C)=O)CO[C@@H]1C[C@@H]2O` [Paclitaxel, paclitaxel, reference compound], the regressions [6] is reported as “no regressions”, the “ILS (increased life span)” value ([6]; paclitaxel 12 mg/kg iv qD×5) is reported as 27% ILS and the “T-C: tumor growth delay” value ([6]; paclitaxel 12 mg/kg iv qD×5 (Days 9-13)) is reported as “T-C 3.5 days,”. The “ILS (increased life span)” value ([6]; paclitaxel 24 mg/kg iv qD×5) was 35% ILS, the “T-C: tumor growth delay” value ([6]; paclitaxel 24 mg/kg iv qD×5) was “T-C 9.7 days,” and the “survival” value ([6]; paclitaxel alone) was “minimal prolongation of survival”. The “tumor growth delay” value ([6]; paclitaxel alone) was “minimal tumor growth delay” and the body weight loss [7] was 4.7 g.

In the case of `CC[C@@]1(O)C(=O)OCc2c1cc1n(c2=O)Cc2cc3c(CN(C)C)c(O)ccc3nc2-1` [Topotecan, topotecan, reference compound], the “Increase in Lifespan” value (Lewis lung carcinoma [8]; topotecan 9.0 mg/kg (0.6×MTD) ip q4D×7 from Day 7) is reported as 63%, the “Median Survival Time” value (Lewis lung carcinoma [8]; topotecan 9.0 mg/kg ip q4D×7 from Day 7) is reported as 36 days and the “Increase in Lifespan” value (Lewis lung carcinoma [8]; topotecan 15 mg/kg (MTD) ip q4D×7 from Day 7) is reported as 68%. For the same molecule, the “Median Survival Time” value (Lewis lung carcinoma [8]; topotecan 15 mg/kg ip q4D×7 from Day 7) was 37 days, the “average number of pulmonary tumor nodules” value (Lewis lung carcinoma [8]; [14]) was 45 and the “suppression of tumor growth” value (Lewis lung carcinoma [8]; [14]) was over 90%. The regressions (MOPC-315 plasmacytoma [9]; topotecan 9 mg/kg ip q4D) was “no regressions”, the tumor growth delay (MOPC-315 plasmacytoma [9]; topotecan 9 mg/kg ip q4D) was 4 days and the complete regressions (MOPC-315 plasmacytoma [9]; [15]) was 1/7. The tumor growth delay (MOPC-315 plasmacytoma [9]; [15]) was “about 12 days”, the antitumor activity (B16F10 melanoma [2]; topotecan at its MTD) was “inactive” and the complete regressions (MOPC-315 plasmacytoma [10]; topotecan MTD alone ip q4D×6 from Day 10) was 2/6. For the same molecule, the effect on tumor (MOPC-315 plasmacytoma [10]; topotecan suboptimal dose alone) was “virtually no effect”, the “Increase in Lifespan” value (Lewis lung carcinoma [11]; [16]) was 42% and the “Median Survival Time” value (Lewis lung carcinoma [11]; [16]) was 25.5 days. For the same molecule, the “Increase in Lifespan” value (Lewis lung carcinoma [11]; [17]) was 86%, the “Median Survival Time” value (Lewis lung carcinoma [11]; [17]) was 33.5 days and the “tumor weight and nodule count” value (Lewis lung carcinoma [11]; topotecan MTD 15 mg/kg) was “good reduction in tumor weight and nodule count”. For the same molecule, the “tumor weight and nodule count” value (Lewis lung carcinoma [11]; topotecan lower dose 9 mg/kg) was “lesser effect on both parameters”.

B1: IL-18: cytokine, interferon-γ-inducing factor; murine IL-18 (SEQ ID NO:2) was administered to mice (protein)
chain: NFGRLHCTTAVIRNINDQVLFVDKRQPVFEDMTDIDQSASEPQTRLIIYMYKDSEVRGLAVTLSVKDSKMSTLSCKNKIISFEEMDPPENIDDIQSDLIFFQKRVPGHNKMEFESSLYEGHFLACQKEDDAFKLILKKKDENGDKSVMFTLTNLHQS
modifications: Mouse
For B1, the “Increase in Lifespan” value (Lewis lung carcinoma [8]; [18]) was 0%, the “Median Survival Time” value (Lewis lung carcinoma [8]; [18]) was 22 days and the “Increase in Lifespan” value (Lewis lung carcinoma [8]; [19]) was 2%. For the same molecule, the “Median Survival Time” value (Lewis lung carcinoma [8]; [19]) was 22.5 days, the “Increase in Lifespan” value (Lewis lung carcinoma [8]; [20]) was 4% and the “Median Survival Time” value (Lewis lung carcinoma [8]; [20]) was 23 days. The “Increase in Lifespan” value (Lewis lung carcinoma [8]; [21]) was 9%, the “Median Survival Time” value (Lewis lung carcinoma [8]; [21]) was 24 days and the “effect on survival time” value (Lewis lung carcinoma [8]; IL-18 alone 0.3-10 μg/mouse ip UID) was “no effect on survival time; also recorded: did not have an enhanced median survival time”. The “lung tumor nodule count” value (Lewis lung carcinoma [8]; [22]) was “significantly decreased”, the lung tumor weight (Lewis lung carcinoma [8]; [22]) was “significantly decreased” and the tumor growth delay (MOPC-315 plasmacytoma [9]; IL-18 alone 0.3, 1, 3, 10 μg/mouse daily ip from Day 11) was 1.3 to 3.1 days. The “effect on tumor growth of established tumors” value (MOPC-315 plasmacytoma [9]; IL-18 alone 0.3-10 μg/mouse daily ip from Day 11) was “only a minimal effect on the tumor growth; also recorded: no effect of IL-18 alone on tumor growth”, the “tumor growth delay” value ([3]; IL-18 alone 1-100 μg/mouse, no dose-response) was “less than a week” and the regressions [3] was “no regressions”. For the same molecule, the antitumor activity (MOPC-315 plasmacytoma [12]; IL-18 alone q1D 100 μg/day, ip and sc) was “active”, the route comparison (MOPC-315 plasmacytoma [12]; IL-18 alone q1D 100 μg/day, ip versus sc) was “intraperitoneal was more effective” and the induction of regression (MOPC-315 plasmacytoma [12]; IL-18 alone, intermittent, 1000 or 100 μg/dose) was “ineffective in inducing regression”. For the same molecule, the “metastasis and growth of tumor” value (colon 26 adenocarcinoma) was “inhibit the metastasis and growth of colon 26 adenocarcinoma”, the toxicity ([4]; IL-18 1 μg/mouse qD×21 from Day 12) was “Not Toxic” and the toxicity ([4]; IL-18 10 μg/mouse qD×21 from Day 12) was “Not Toxic”. The toxicity ([4]; IL-18 100 μg/mouse qD×21 from Day 12) was “Not Toxic”, the “T-C: tumor growth delay” value ([6]; IL-18 1 μg sc qD×21) was “T-C 1.7 days,” and the “ILS (increased life span)” value ([6]; IL-18 10 μg sc qD×21) was 12% ILS. For the same molecule, the “T-C: tumor growth delay” value ([6]; IL-18 10 μg sc qD×21) was “T-C 2.1 days,”, the “ILS (increased life span)” value ([6]; IL-18 100 μg sc qD×21) was 0% ILS and the “T-C: tumor growth delay” value ([6]; IL-18 100 μg sc qD×21) was “T-C 2.8 days,”. For the same molecule, the “tumor growth” value ([6]; IL-18 alone at the low dose) was “without delaying tumor growth”, the regressions [6] was “no regressions” and the tumor growth delay (B16F10 melanoma [1]; IL-18 alone) was “about 2 days”. For the same molecule, the regressions (B16F10 melanoma [1]) was “no regressions”, the “ILS (effect on survival time)” value (B16F10 melanoma [2]; IL-18 alone from Day 11) was under 30% and the “effect on tumor growth” value (B16F10 melanoma [2]; IL-18 alone from Day 11) was “no effect on tumor growth”. For the same molecule, the complete regressions (MOPC-315 plasmacytoma [10]; IL-18 alone 100 μg/mouse/day ip qD×30 from Day 10) was 4 of 6, the effect on tumor (MOPC-315 plasmacytoma [10]; IL-18 alone, doses lower than 100 μg/mouse/day) was “ineffective” and the “Increase in Lifespan” value (Lewis lung carcinoma [11]; [23]) was 11%. The “Median Survival Time” value (Lewis lung carcinoma [11]; [23]) was 20 days, the “Increase in Lifespan” value (Lewis lung carcinoma [11]; [24]) was 0% and the “Median Survival Time” value (Lewis lung carcinoma [11]; [24]) was 18 days. The “Increase in Lifespan” value (Lewis lung carcinoma [11]; [25]) was 0%, the “Median Survival Time” value (Lewis lung carcinoma [11]; [25]) was 18 days and the “Increase in Lifespan” value (Lewis lung carcinoma [11]; [26]) was 3%. The “Median Survival Time” value (Lewis lung carcinoma [11]; [26]) was 18.5 days, the “Increase in Lifespan” value (Lewis lung carcinoma [11]; [27]) was 22% and the “Median Survival Time” value (Lewis lung carcinoma [11]; [27]) was 22 days.
